experiment: soluble on expression in E. coli; label from the status in PepcDB or PDB records

| Sequence | soluble on expression in E. coli |
| --- | --- |
| MSLNGDNQQILREIVLNPTIHGKELESIFGLSRRQLGYRIQKINLWLEQEGYPKLERTSQGNFIVSSEIMTLFKRDVSEQQMLNGNNVIFSIETRRYYLMLMLFSKENAMSLNHFSIDLQVSKNTVIHDINHVKEQLENHGLSLKYSRKHGYEIVGDEFEVRRFFIKLIDQRLNHDITKSEVLKALNLTFEDIAYQKDKIKQVEQFLKSRFIDKSLSSLPYVLCVIRRRIQSGHVMNPLNINYQYLRDTKEYQATEIMTQHEPDLPEAEKLYLTLHLLSTSVQWTDLQESDSISNLTMAIAQMIHHFEQITFINIEDKEKLSQQLLLHLTPAFYRIKYNLTDRDELINPLQGNYQSLFHMVKQSCQSLTEYFGKSLPDNEIAYLTMLFGGSLRREGHHHHHH | soluble |
| MSLNGLKRGFPVMKEQIGGKLICISGIPGTGKSTICNLLNDLGYTCVEGNALAVKYGCLSGDEVDVDCLSDRMRSDNFKGIVAAHYAHLLPCNIVIILEADESALRQRMMDRGYSPEKIDENLDAQRSDTIYAESLERLPANRIFRIRNADLNVALSDILRIIGGRNEGHHHHHH | soluble |
| MSLNIAIFINTPAQFHFYRNIAKELKNRGHFVELLFRDYGENLEIAKELGLNPTVYAKPSDSKYGKILSLPSDVLRATKLLKKFKPDIITGFGVYDAFSSFLVNVPCIVFNDSEPFINSSYAVQFKLFMPFTNVLITPEAFQPNFGTKHINIPSYKEFSYLHPNYYTPKEDIFELIGIEKNEEYILLRFNAFDAVHDAGITGFTKENKIKLVKELEKHCKVFISSETQVPKEIEKNILKTPKSRIHDVLYYAKILITDTQTMTTEAALLGTPALRYNKFVGGKDMSNFIELEKNYGLIFNYQNSEKIFERAFELLNTENLKEIWKKKRELLLKNKIDSTSFMVWFFENYPESFEKMKTDVTIYENFNDNLAKIKGEGHHHHHH | soluble |
| MSLNKSTVDYQNAKILMDNFYSSREININGDNVTIVINDIMYIPSIDELEIKNGDKNLIIKFDRDGNKVKYKDIECIEYLNLKKGEEISLFNKSYIVEDITSNYVILKEKDGKEVLTNESFEYDGYKVVVKLVSSDLNTIIVDIYKNEKVLDSPKLTKGKIYYMKGGTLGLMYENCTRIGKGYRFTFRVYSTIKIEEGEDYPLDKEFKVKEISTDKIKLEYKNIDSLGNEIYLFNYTIIPEKCYKDYVLFKVIKRKEKTVDVKDVAYIGDGIYAVKVNNTVHVFYKGKELKNHEKIYLGSVDVYSSNPLNVNKDIILIGGPKVNKIVKELEDKGLLKVNISTNYPGNNRGIILKIKNPYNDNNIYILAGSDRWGTKAAILVFLTKYNDEDTLMVEWDKGEIKIIKEGHHHHHH | soluble |
| MSLNKTQAQVSHALKSLARKEEWKHRLQQSEELHDILLKAANRYVAGEKRSDGLAIARKLQAKGYGISLENIGENTKLLAQCREAKMEFDQLIEDVGAIAPGQTVSFDLSHIGLSYQFDTAYGHLIELAEKANEHEVTLMISMEESTKTDQILAVYRQAAELYSNIGITLQAHLFRTPDDLRKLVQLPGKIRIVKGAYQEPSHLAMERSDYLNNRYLELVDHLVSTNHPVSVATHDQKLLEEMERRQFLQSTDVEIEMLYGIQPSQLKLFKEKGYQTRVYLTYGHEWFLYLCHRLAEYPENIYTALIDIINPSLPKVDDMYEGHHHHHH | soluble |
| MSLNLAKRILQGEQLTKETVLKIYEDTNIDTLDLLNEAYILRKHYFGKKVKLNMILNAKSGICPENCGYCGQSRDIKQKQRYALIPEEQIIDGAKVAHDNHIGTYCIVMSGRGPSDKEVDHISNTVRTIKSQHPQLKICACLGLTNDEQAKKLKSAGVDRYNHNINTSENYHDNVVTTHSYKDRTDTIELMKANNISPCSGVICGMGESNQDIVDMAFALKEMDADSIPINFLHPIKGTKFGSMDDLTPMKCLRIVALFRLINPTKEIRIAGGREVNLRSLQPLALKAANSIFVGDYLITGGQPNQLDYDMINDLGFEIDYDTCENKENKNDVSRANEGHHHHHH | soluble |
| MSLNLGDLTNFVEKPLAAVSNIVNTPNSAGRYRPFYLRNLLDAVQGRNLNDAVKGKVVLITGGSSGIGAAAAKKIAEAGGTVVLVARTLENLENVANDIRAIRGNGGTAHVYPCDLSDMDAIAVMADQVLGDLGGVDILINNAGRSIRRSLELSYDRIHDYQRTMQLNYLGAVQLILKFIPGMRERHFGHIVNVSSVGVQTRAPRFGAYIASKAALDSLCDALQAETVHDNVRFTTVHMALVRTPMISPTTIYDKFPTLTPDQAAGVITDAIVHRPRRASSPFGQFAAVADAVNPAVMDRVRNRAFNMFGDSSAAKGSESQTDTSELDKRSETFVRATRGIHWEGHHHHHH | not soluble |
| MSLNLQSKKRAWIVGKEHYDLGNDLFSRMLDPYMQYSCAYWKDADTLEAAQQAKLKLICEKLQLQPGMRVLDIGCGWGGLSQYMATHYGVSVVGVTISAEQQKMAQTRCEGLDVSILLEDYRDLNDQFDRIVSVGMFEHVGPKNYNTYFEVVDRNLKPDGLFLLHTIGSKKTDHNVDPWINKYIFPNGCLPSVRQIAEASESHFVMEDWHNFGADYDTTLMAWHERFINAWPEIAGNYNERFKRMFSYYLNACAGAFRARDIQLWQVVFTRGVENGLRVPREGHHHHHH | not soluble |
| MSLNNIDNIINFINKTPKSELHLHIEGSLEPELMFKLSKRNKIEIPFKSVEDIKSAYNFSNLDSFLKIYYEGSNVLITEEDFFDLTWEYILRCKKDNIVHTEIFFDPQSHTSRGIKFDIIINGIHKALAKANDEFGITSKIIMCFLRHLDEKLCFDVLKDAIQHKDKIIGVGLDSSEKGNPPKKFKRLFEEAIKEGFLTVAHAGEEGPPEYIWDSLNLLKVKRIDHGVQCLKDDDLVKNLKENNIPLTVCPLSNIKLCVFDKLENHNLKKMLEKGLRVMVNSDDPAYFGGYLNKNLIEISKALNLNLEQVKVLIQNSFKSSFLDKKSKSKWLSKVEGHHHHHH | soluble |
| MSLNPMIAKQKPNGNIQCLVCNAEIKPKIWTAHVNGKKHRDSIEKLKTSAQKRGKESSTRNTDEPPNKKQKEVPNQGPTTLPTDFFDDESTPFRKDDSKTATVGHNSNLIEGVPAGFFDDKRLDGNVRETRERNAELDAEYERWKEEIGEEQVELDTKAEELEAAVQRELELERIDEQMAALKKLNDMEIQKEKRLNQARERRLKREEPEEEEDDDGEDIDLDALDWRAKNIFA | not soluble |
| MSLNRSSFDLLSTVEYGGCSAKLDPAKLSELLHDIPLPVDSRIMVDVSTHDDAGVYRLNDDTALIVTTDFFPPVCSDPYTFGRIAAANALSDVYAMGGRPLLVLNLTMFPSEGIPVEVLADILRGGQQTIDESGAFTMGGHTIDDPIPKYGLAVTGIVHPEHLVTNAGVRAGQCLVLTKPLGIGVAMAAHRLGLIGSEVYEAAIGQMCLLNRAGAELMQKYGIRGATDITGFGLLGHAKELAEASDVCLHIDSRSVPVLPECLSLLRDGCIPGATFRNLRFVGDMLRADCPTEYKMLLADAQTSGGLLMAVDADRAEDLVADLHRTGLHPFAAIIGYATDAEDAAKLIVTEGHHHHHH | soluble |
| MSLNRYLAAPEIKANETLVIADRYAYFNIPSWKGAGVAVPVFSLKSEKSFGVGDFGDLKRMVDWAVSTNQKVVQILPINDTTMTHTWTDSYPYNSISIYAFHPMYADLKQMGNLKDKETAAAFNRKQKELNALSAIDYEAVNRVKWEYFHQIFKQEGEKVLASKAFRSFFEANKDWLQPYAAFSYLRDLYHTPNFREWPQYSEYNAQEIEELCRPDTADYAHIAIYFYIQFNLHLQLLEATTYAREHGVVLKGDIPIGISRNSVEAWTEPYYFNLNGQAGAPPDDFSINGQNWGFPTYNWDVMENDGYKWWMKRFQKMAEYFDAYRIDHILGFFRIWEIPMNAVHGLLGQFVPALPMSREEIESYGLSFREEFLRPYIHEYFLGQVFGPHTDYVKQTFIEPTETYEVYRMRPEFDTQRKVEAFFAGKNDEDSIWVRDGLYALISDVLFVPDRKDPNLYHPRIGVQHDFIYRALNDWEKTAFNRLYDQYYYHRHNDFWQQQAMKKLPQLTQSTRMLVCGEDLGMIPDCVAWVMNDLRILSLEIQRMPKNPAEEFGRLNEYPYRSVCTFSTHDMSTLRGWWEEDYQQTQRYYNQMLGHYGTAPAIATPELCEEIVRNHLYSNSILCILSLQDWLSMDGKWRNPNVQEERINIPANPRHYWRYRMHLTLEQLMKAESLNEKIRELVKQTGRNEGHHHHHH | soluble |

Source: the DeepSol protein solubility set
